# Reference: paper PMC8301185, “Secondary Structure of the Novel Myosin Binding Domain WYR and Implications within Myosin Structure” (Biology, 2021)
# Ends that are not written are not given here.
# T1: Myosin heavy chain, muscle (LMM) 1346-1941 (Drosophila melanogaster, UniProt P05661)
# T1 chain: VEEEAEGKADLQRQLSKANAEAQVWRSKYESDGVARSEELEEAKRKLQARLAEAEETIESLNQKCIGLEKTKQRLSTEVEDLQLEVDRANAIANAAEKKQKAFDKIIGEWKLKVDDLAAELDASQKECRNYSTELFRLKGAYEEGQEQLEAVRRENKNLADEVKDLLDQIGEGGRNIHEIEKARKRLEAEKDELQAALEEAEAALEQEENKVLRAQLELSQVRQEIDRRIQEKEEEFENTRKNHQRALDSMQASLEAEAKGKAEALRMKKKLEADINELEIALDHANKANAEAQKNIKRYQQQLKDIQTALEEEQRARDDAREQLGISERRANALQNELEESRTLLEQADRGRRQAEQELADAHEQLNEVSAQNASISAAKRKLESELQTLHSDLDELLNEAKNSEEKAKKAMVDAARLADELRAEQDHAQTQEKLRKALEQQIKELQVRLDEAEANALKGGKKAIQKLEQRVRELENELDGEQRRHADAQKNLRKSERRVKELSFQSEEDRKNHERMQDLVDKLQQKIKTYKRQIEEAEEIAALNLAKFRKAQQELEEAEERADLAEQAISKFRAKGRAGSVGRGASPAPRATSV
# B1: Flightin (WYR domain) 84-136 (protein)
# chain: HWVRPKFLQYKYMYNYRTNYYDDVIDYIDKKQTGVAREIPRPQTWAERVLRTR
# B2: LMM: 68.9 kDa 602 aa peptide encompassing V1346 through I1941 of D. melanogaster myosin heavy-chain with an N-terminal 6× His-tag (protein, UniProt P05661 1346-1941, looked up, fragment)
# chain: T1 chain
# modifications: N-terminal 6xHis tag
# notes: 68.9 kDa 602 aa peptide encompassing V1346 through I1941 of D. melanogaster myosin heavy-chain with an N-terminal 6× His-tag
# Columns and labels:
# [1] = target: T2, LMM (V1346 through I1941 of D. melanogaster myosin heavy-chain) (Drosophila melanogaster, UniProt P05661); assay: Co-sedimentation assay of LMM titrated by WYR; type: binding
# T2 construct: encompassing V1346 through I1941 of D. melanogaster myosin heavy-chain; made in house; host or cells: E. coli BL-21(DE3) pLysS
# Protocol: A 68.9 kDa 602 aa peptide encompassing V1346 through I1941 of D. melanogaster myosin heavy-chain (herein LMM) with an N-terminal 6× His-tag cloned into pET-23a vector was transformed into E. coli BL-21(DE3) pLysS cells. Cells were grown in Luria broth (LB) containing 100 µg/mL ampicillin and 50 µg/mL chloramphenicol. Upon reaching A600 of 0.8–1.0, culture was chilled on ice for 15 min, and expression was induced by adding IPTG to 0.75 mM and incubating for 16 h at 25 °C with gentle rocking. Induced cells were collected by centrifugation at 10,000 rcf for 10 min and stored as pellets at −40 °C. Pellets were resuspended in lysis buffer described by Korkmaz et al., and lysed by sonication. […] The relative purity of each fraction was assessed via SDS-PAGE stained with Krypton (Thermo Scientific, Rockford, IL, USA). […] Protein concentration was determined via absorbance at 280 nm using an extinction coefficient of 18450 cm^−1 M^−1. […]
# Synthetic, 6.6 kDa 52 aa WYR peptide encompassing H84-T136 of D. melanogaster flightin was sourced from Genscript (Piscataway, NJ, USA). Peptide was suspended in ddH2O, filtered through a 0.22 µm Millipore filter, and concentration determined by micro BCA assay and absorbance at 280 nm using an extinction coefficient of 21,430 cm^−1 M^−1. […]
# [2] = target: T1, Myosin heavy chain, muscle (LMM) …; assay: co-sedimentation
# [3] = Circular dichroism of LMM alone, secondary structure estimation; type: physicochemical; settings: for CD maximum wavelength: MRE profile, Figure S9; for helicity, range over methods: without CONTIN, CDSSTR, BeStSel; for α helical content, range over methods: all methods
# Protocol: A 68.9 kDa 602 aa peptide encompassing V1346 through I1941 of D. melanogaster myosin heavy-chain (herein LMM) with an N-terminal 6× His-tag cloned into pET-23a vector was transformed into E. coli BL-21(DE3) pLysS cells. Cells were grown in Luria broth (LB) containing 100 µg/mL ampicillin and 50 µg/mL chloramphenicol. Upon reaching A600 of 0.8–1.0, culture was chilled on ice for 15 min, and expression was induced by adding IPTG to 0.75 mM and incubating for 16 h at 25 °C with gentle rocking. Induced cells were collected by centrifugation at 10,000 rcf for 10 min and stored as pellets at −40 °C. Pellets were resuspended in lysis buffer described by Korkmaz et al., and lysed by sonication. To purify the MHC peptide, the lysate was rocked at 4 °C with Ni-NTA-agarose resin for one hour in a 20 mL column before being rinsed with 8 column volumes of 20 mM imidazole wash-buffer. The resin was then rinsed in two 15 mL portions of each 40- and 80 mM imidazole wash buffer, with 10 min of rocking in each 15 mL portion. The peptide was eluted in six 1 mL fractions and one 12 mL fraction for a total volume of 18 mL 200 mM imidazole elution buffer. All wash and elution buffers are variants of ‘Buffer A’ described by Korkmaz et al. with the following modifications: imidazole concentration was adjusted to 20 mM, 40 mM or 80 mM for wash buffer and to 200 mM for elution buffer. The relative purity of each fraction was assessed via SDS-PAGE stained with Krypton (Thermo Scientific, Rockford, IL, USA). Selected fractions were further purified and concentrated with an Amicon Ultra-15 50k centrifugal filter, and buffer exchanged into 400 mM NaF, 20 mM sodium phosphate pH 7.0, 1 mM TCEP for storage. Protein concentration was determined via absorbance at 280 nm using an extinction coefficient of 18450 cm^−1 M^−1. Densitometry using ImageJ was carried out on Krypton stained gels to ascertain purity of the sample [23] and the peptide identity verified by mass spectrometry.
# WYR and LMM samples ranging from 0.5 to 10 µM were prepared in 700 µL of 215 mM NaF, 20 mM Sodium Phosphate, pH 7, 1 mM TCEP. LMM preparations were centrifuged at 10,000 rcf for 10 min and filtered through a 0.22 µm Millipore filter. Blank samples used an equivalent volume of filtrate from the final flow through from LMM concentrators as used in the experimental samples to account for any possible trace contaminant. These blanks were checked against equivalent freshly prepared buffer. A rectangular STARNA quartz cuvette with a pathlength of 0.2 cm was used throughout. Between experiment days the cuvette received a full wash with the provided STARNA detergent in accordance to STARNA protocol. Between samples, 1× 60% EtOH and 3× dH2O rinses were carried out and residual fluid was evaporated with pressurized nitrogen.
# Samples were measured at 25 °C using a Jasco J-1700 spectropolarimeter at a scanning-speed of 20 nm/min with a digital integration time (DIT) of 8 s and bandwidth of 0.5–1 nm over six accumulations, minimally from 260–190 nm on continuous scan mode. A minimum n = 6 was used for measurements of the experimental combination of LMM and WYR and an n = 10 for WYR alone in 215 mM NaF, 20 mM Sodium Phosphate, pH 7, 1 mM TCEP. Wavelengths at maxima and minima, as well as θ222/208 and θ192/208 ellipticity ratios were recorded for all spectra. […] While other analysis programs exist, BeStSel is best suited for non-helical proteins of more unusual structure through both its diverse eight element modelling and inclusion of a basis dataset that incorporates proteins with rare secondary structures. BeStSel was most appropriate given the non-helical profile of WYR along with its high aromatic content and presence of proline.
# Independent spectra for each peptide were evaluated after subtracting baseline spectra. […]
# T2 sequence (P05661 1-1936 isoform P05661-24): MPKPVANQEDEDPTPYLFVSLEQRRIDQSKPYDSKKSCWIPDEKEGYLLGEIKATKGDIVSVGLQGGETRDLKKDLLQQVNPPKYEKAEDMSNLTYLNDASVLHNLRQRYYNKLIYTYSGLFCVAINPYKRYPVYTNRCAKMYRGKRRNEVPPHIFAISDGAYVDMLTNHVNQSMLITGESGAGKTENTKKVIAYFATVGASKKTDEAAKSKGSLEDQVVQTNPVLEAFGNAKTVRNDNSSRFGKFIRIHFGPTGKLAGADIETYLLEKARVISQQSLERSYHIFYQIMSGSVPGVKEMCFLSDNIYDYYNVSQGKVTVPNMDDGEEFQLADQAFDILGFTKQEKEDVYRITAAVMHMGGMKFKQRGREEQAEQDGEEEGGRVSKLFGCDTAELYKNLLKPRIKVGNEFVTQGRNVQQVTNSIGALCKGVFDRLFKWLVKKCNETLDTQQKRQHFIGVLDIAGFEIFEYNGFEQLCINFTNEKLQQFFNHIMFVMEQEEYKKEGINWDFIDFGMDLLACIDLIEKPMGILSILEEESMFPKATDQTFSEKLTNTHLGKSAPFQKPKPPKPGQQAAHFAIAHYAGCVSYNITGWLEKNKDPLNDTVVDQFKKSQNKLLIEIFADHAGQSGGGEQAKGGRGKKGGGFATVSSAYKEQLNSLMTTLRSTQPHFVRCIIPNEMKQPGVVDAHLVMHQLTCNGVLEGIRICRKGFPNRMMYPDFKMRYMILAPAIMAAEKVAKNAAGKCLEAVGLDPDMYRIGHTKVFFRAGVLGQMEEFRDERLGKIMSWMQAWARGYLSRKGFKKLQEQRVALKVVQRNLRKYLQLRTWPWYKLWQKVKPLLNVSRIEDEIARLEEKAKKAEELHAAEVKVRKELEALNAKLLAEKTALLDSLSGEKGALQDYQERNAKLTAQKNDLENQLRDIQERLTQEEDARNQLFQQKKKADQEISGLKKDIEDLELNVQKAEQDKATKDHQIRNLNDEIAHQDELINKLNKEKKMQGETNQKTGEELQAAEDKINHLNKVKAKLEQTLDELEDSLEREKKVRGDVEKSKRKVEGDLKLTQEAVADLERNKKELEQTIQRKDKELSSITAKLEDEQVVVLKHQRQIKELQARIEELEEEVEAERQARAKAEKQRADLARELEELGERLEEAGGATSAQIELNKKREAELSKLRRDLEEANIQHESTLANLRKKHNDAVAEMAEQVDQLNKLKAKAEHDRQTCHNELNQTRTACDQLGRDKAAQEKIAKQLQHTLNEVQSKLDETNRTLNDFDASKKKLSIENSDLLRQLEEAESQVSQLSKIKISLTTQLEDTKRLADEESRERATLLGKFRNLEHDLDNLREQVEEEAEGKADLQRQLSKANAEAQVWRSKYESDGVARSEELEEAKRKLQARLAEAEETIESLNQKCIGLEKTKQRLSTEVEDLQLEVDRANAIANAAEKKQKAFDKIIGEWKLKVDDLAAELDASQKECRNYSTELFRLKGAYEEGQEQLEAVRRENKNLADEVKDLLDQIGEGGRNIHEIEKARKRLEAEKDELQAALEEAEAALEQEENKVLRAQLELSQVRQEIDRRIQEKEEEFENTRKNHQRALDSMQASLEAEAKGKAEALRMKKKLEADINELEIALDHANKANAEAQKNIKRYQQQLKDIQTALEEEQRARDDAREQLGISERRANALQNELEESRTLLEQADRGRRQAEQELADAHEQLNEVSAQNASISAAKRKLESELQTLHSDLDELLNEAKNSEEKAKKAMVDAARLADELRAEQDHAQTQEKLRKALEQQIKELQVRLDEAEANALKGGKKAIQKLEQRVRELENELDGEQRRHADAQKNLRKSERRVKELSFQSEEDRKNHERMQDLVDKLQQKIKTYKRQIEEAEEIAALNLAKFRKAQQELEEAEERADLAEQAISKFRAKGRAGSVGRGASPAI
molecule,measurement,setting,value
HWVRPKFLQYKYMYNYRTNYYDDVIDYIDKKQTGVAREIPRPQTWAERVLRT [WYR],Kd,"[1]; Kd 95% CI, 95% confidence interval of Kd, co-sedimentation",1550 to 2760 nM
same,LMM sedimenting in the presence of WYR,[1]; upon centrifugation at the WYR/LMM ratio used in CD experiments,~ 30%
B1,Kd,[2],2060 nM
B2,fractional alpha helical composition,"[3]; 208 nm magnitude, [LMM] 2 µM",28.5%
same,fractional alpha helical composition,"[3]; 208 nm magnitude, [LMM] 10 µM",28.7%
same,fractional alpha helical composition,"[3]; 222 nm magnitude, [LMM] 2 µM",18.1%
same,fractional alpha helical composition,"[3]; 222 nm magnitude, [LMM] 10 µM",19.1%
same,fractional alpha helical composition,"[3]; 230-240 nm slope, [LMM] 2 µM",14.2%
same,fractional alpha helical composition,"[3]; 230-240 nm slope, [LMM] 10 µM",15.3%
same,fractional alpha helical composition,"[3]; BeStSel (190-260), [LMM] 2 µM",11.3%
same,fractional alpha helical composition,"[3]; BeStSel (190-260), [LMM] 10 µM",15.6%
same,fractional alpha helical composition,"[3]; CDSSTR (SMP180), [LMM] 2 µM",8%
same,fractional alpha helical composition,"[3]; CDSSTR (SMP180), [LMM] 10 µM",17.9%
same,fractional alpha helical composition,"[3]; CONTIN (SMP180), [LMM] 10 µM",8.2%
same,fractional alpha helical composition,"[3]; K2D, [LMM] 2 µM",19%
same,fractional alpha helical composition,"[3]; K2D, [LMM] 10 µM",22%
same,CD maximum wavelength,[3]; LMM 2 µM,193-194 nm
same,CD maximum wavelength,[3]; LMM 10 µM (higher concentration),197-198 nm
same,222/208 ratio,[3]; [LMM] 2 µM (low),1.08
same,222/208 ratio,[3]; [LMM] 10 µM (high),1.17
same,"helicity, range over methods",[3]; high concentration,15.3 to 28.7%
same,"α helical content, range over methods",[3]; higher LMM concentration (10 µM),8.2–28.7%
same,"helicity, range over methods",[3]; low concentration,14.2 to 28.5%
same,"α helical content, range over methods",[3]; lower LMM concentration (2 µM),8–28.5%
